Assay results: paper PMC3796545, “Protein-Protein Interactions as a Strategy towards Protein-Specific Drug Design: The Example of Ataxin-1” (PLoS ONE, 2013)

B1: L-CICp [human] / ATX1 AXH (residues A567-K689 of human ATX1) [human] (parent complex)
chain 1: VFPWHSLVPFLAPSQ
chain 2: GAMAPPTLPPYFMKGSIIQLANGELKKVEDLKTEDFIQSAEISNDLKIDSSTVERIEDSHSPGVAVIQFAVGEHRAQVSVEVLVEYPFFVFGQGWSSCCPERTSQLFDLPCSKLSVGDVCISLTLK

Variants of: B1
Test: ITC; parent: 30 nM

Kd [nM] | Variant
70 | chain 1 VFPWHSLAPFLAPSQ
20 | chain 1 VFPWHSLVPFLAASQ
20 | chain 1 AFPWHSLVPFLAPSQ
10 | chain 1 VFPWHALVPFLAPSQ
2600 | chain 1 VFPAHSLVPFLAPSQ

More lines, now with the values behind:

Variant | Kd [nM]
chain 1 VFAWHSLVPFLAPSQ | 40
chain 1 VFPWASLVPFLAPSQ | 50
chain 1 VFPWHSLVAFLAPSQ | 40
chain 1 VFPWHSLVPALAPSQ | 60
chain 1 VAPWHSLVPFLAPSQ | 30
chain 1 VFPWHSAVPFLAPSQ | 500
chain 1 VFPWHSLVPFLGPSQ | 20
chain 1 VFPWHSLVPFAAPSQ | 50
